Measured values as given in US20060292149A1 (LIFE SCIENCES RESEARCH PARTNERS, published 2006).

Assays:
[1] = target: recombinant FVIII (human), P00451; experiment: cell-based or functional assay
[2] = target: Factor VIII in a pool of normal human plasma (human), P00451; experiment: cell-based or functional assay
recombinant FVIII = target: T1, recombinant FVIII (human, UniProt P00451 20-2351); experiment: SPR (BIAcore), antibody immobilised on CM5 chip, FVIII infused
T1 chain: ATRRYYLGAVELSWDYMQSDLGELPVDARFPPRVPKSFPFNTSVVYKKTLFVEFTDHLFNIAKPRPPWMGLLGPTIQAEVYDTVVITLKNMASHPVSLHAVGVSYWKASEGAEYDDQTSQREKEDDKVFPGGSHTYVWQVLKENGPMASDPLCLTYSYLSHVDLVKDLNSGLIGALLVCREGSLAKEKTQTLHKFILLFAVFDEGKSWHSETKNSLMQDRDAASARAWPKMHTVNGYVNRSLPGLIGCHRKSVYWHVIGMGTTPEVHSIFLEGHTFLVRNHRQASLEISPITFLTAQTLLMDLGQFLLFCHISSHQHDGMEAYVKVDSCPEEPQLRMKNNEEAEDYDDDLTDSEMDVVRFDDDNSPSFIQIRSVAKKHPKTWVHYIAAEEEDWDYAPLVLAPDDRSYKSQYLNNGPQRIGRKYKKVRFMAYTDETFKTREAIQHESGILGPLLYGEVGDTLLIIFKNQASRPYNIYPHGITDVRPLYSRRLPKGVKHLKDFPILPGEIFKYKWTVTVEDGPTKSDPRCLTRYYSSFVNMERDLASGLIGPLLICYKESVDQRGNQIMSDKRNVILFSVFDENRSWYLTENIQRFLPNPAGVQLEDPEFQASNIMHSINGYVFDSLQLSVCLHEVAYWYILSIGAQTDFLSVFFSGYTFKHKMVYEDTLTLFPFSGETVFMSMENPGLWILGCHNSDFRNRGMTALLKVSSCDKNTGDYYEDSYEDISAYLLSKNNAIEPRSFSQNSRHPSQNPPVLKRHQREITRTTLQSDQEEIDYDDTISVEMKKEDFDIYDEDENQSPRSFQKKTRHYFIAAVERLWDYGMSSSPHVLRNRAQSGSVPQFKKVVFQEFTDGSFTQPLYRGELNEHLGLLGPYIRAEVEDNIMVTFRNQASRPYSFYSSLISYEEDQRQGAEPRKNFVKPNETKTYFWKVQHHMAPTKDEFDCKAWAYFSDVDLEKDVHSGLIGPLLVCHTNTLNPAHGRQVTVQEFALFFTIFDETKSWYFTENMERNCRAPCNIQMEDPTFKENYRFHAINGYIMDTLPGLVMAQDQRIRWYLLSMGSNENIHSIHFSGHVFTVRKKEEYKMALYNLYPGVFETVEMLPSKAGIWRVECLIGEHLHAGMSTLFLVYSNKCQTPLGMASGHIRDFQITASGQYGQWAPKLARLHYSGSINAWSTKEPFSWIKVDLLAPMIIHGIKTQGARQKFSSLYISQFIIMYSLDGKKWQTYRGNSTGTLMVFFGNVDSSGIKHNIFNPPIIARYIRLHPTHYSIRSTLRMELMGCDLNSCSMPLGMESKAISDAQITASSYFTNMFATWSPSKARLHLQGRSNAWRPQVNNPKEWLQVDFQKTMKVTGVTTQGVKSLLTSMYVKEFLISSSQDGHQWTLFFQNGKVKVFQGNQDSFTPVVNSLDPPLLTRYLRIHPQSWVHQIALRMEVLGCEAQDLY

B1: RHD5 (human monoclonal antibody from the lymphoblastoid cell line RHD5) (antibody, V domains shown)
VH: QVQLVQSGAEVKKPGSSVMVSCKASGGTFSSFGISWVRQAPGQGLEWVGGIIPIFGTANTARNFQNRVTITADEFTSTAYIRLRSLRSEDTAVYYCVGGRDAYSFDGFDVWGQGTMVTVSSASTKGPSVFP
VL: SSGLTQPHSVSVSPGQTANITCSRDKLGHKFASWYQQKPGQSPALLIYQDSKRPSGIPERFSGSNSGNTATLTISGTQAMDEADYYCQAWDNTTAVFGGGTKLTVLSQPKAAPSVTLFPPS
inhibition of FVIII activity at a final concentration of RHD5 of 100 microgram/ml (full length recombinant FVIII) [1]: 98% | inhibition of FVIII activity at a final concentration of RHD5 of 100 microgram/ml (plasma) [2]: 97%

B2: CHO-recKRIX-1 (recombinant Krix-1 produced in CHO cells) (antibody, V domains shown)
VH: QVQLVQSGAEVKKPGASVKVSCKTSGYNFTGYSASGHIFTAYSVHWVRQAPGQGLEWMGRINPNSGATDYAHKFQGRVTMSRDTSISTAYMELSRLTSDDTAMYYCARADNYFDIVTGYTSHYFDYWGRGTLVTVSS
VL: EIVLTQSPGTLSLSPGERATLSCRASQSVASAYLAWYQQKPGQAPRLLIYGASSRATDIPHRFSGSGSGTDFTLTISRLEPEDFAVYYCQQYGTSALLTFGGGTKVEIKR
modifications: N-linked glycosylation site at Asn47-Thr49, glycosylated as produced by CHO cells
notes: also called native CHO-rec-KRIX-1; rec-mAb Krix-1
Kd (recombinant FVIII): 0.14 nM

B3: CHO-recKRIX-1A (Krix-1 with Thr49 changed to Ala in the heavy chain, produced in CHO cells) (antibody, IgG4, V domains shown)
VH: QVQLVQSGAEVKKPGASVKVSCKTSGYNFAGYSASGHIFTAYSVHWVRQAPGQGLEWMGRINPNSGATDYAHKFQGRVTMSRDTSISTAYMELSRLTSDDTAMYYCARADNYFDIVTGYTSHYFDYWGRGTLVTVSS
VL: EIVLTQSPGTLSLSPGERATLSCRASQSVASAYLAWYQQKPGQAPRLLIYGASSRATDIPHRFSGSGSGTDFTLTISRLEPEDFAVYYCQQYGTSALLTFGGGTKVEIKR
notes: IgG4 kappa; The mutation disrupts the N-linked glycosylation site at Asn47-Thr49
Kd (recombinant FVIII): 0.13 nM

B4: CHO-recKRIX-1Q (Krix-1 with Asn47 changed to Gln in the heavy chain, produced in CHO cells) (antibody, IgG4, V domains shown)
VH: QVQLVQSGAEVKKPGASVKVSCKTSGYQFTGYSASGHIFTAYSVHWVRQAPGQGLEWMGRINPNSGATDYAHKFQGRVTMSRDTSISTAYMELSRLTSDDTAMYYCARADNYFDIVTGYTSHYFDYWGRGTLVTVSS
VL: EIVLTQSPGTLSLSPGERATLSCRASQSVASAYLAWYQQKPGQAPRLLIYGASSRATDIPHRFSGSGSGTDFTLTISRLEPEDFAVYYCQQYGTSALLTFGGGTKVEIKR
notes: IgG4 kappa; The mutation disrupts the N-linked glycosylation site at Asn47-Thr49; also called Asn47Gln Krix-1; rec-mAb-KRIX-1Q
Kd (recombinant FVIII): 0.17 nM

B5: Krix-1 (human monoclonal antibody KRIX-1 produced in a lymphoblastoid cell line) (antibody, V domains shown)
VH: QVQLVQSGAEVKKPGASVKVSCKTSGYNFTGYSASGHIFTAYSVHWVRQAPGQGLEWMGRINPNSGATDYAHKFQGRVTMSRDTSISTAYMELSRLTSDDTAMYYCARADNYFDIVTGYTSHYFDYWGRGTLVTVSSASTKGPSVF
VL: EIVLTQSPGTLSLSPGERATLSCRASQSVASAYLAWYQQKPGQAPRLLIYGASSRATDIPHRFSGSGSGTDFTLTISRLEPEDFAVYYCQQYGTSALLTFGGGTKVEIKRTVAAPSVFIFPPS
modifications: here or on the partner: N-linked glycosylation site at Asn47-Thr49, glycosylated as produced by the human lymphoblastoid cell line
inhibition of FVIII activity in plasma (Bethesda assay, chromogenic FVIII assay) [2]: 90% | inhibition of FVIII activity in plasma (chromogenic assay) [2]: 90%

B6: deglycosylated KRIX-1 (KRIX-1 treated with N-glycosidase-F) (antibody, IgG4, V domains shown)
VH: QVQLVQSGAEVKKPGASVKVSCKTSGYNFTGYSASGHIFTAYSVHWVRQAPGQGLEWMGRINPNSGATDYAHKFQGRVTMSRDTSISTAYMELSRLTSDDTAMYYCARADNYFDIVTGYTSHYFDYWGRGTLVTVSSASTKGPSVF
VL: EIVLTQSPGTLSLSPGERATLSCRASQSVASAYLAWYQQKPGQAPRLLIYGASSRATDIPHRFSGSGSGTDFTLTISRLEPEDFAVYYCQQYGTSALLTFGGGTKVEIKRTVAAPSVFIFPPS
modifications: here or on the partner: N-linked glycans removed by N-glycosidase-F (2 U/ml, 37 C, 72 h)
inhibition of FVIII activity in plasma (chromogenic assay) [2]: 50% | maximal inhibition (plateau inhibition) of FVIII activity in plasma (Bethesda assay, chromogenic FVIII assay) [2]: 50%

B7: CHO-recKRIX-1 (recombinant Krix-1 produced in CHO cells) (antibody, V domains shown)
VH: QVQLVQSGAEVKKPGASVKVSCKTSGYNFTGYSASGHIFTAYSVHWVRQAPGQGLEWMGRINPNSGATDYAHKFQGRVTMSRDTSISTAYMELSRLTSDDTAMYYCARADNYFDIVTGYTSHYFDYWGRGTLVTVSSASTKGPSVF
VL: EIVLTQSPGTLSLSPGERATLSCRASQSVASAYLAWYQQKPGQAPRLLIYGASSRATDIPHRFSGSGSGTDFTLTISRLEPEDFAVYYCQQYGTSALLTFGGGTKVEIKRTVAAPSVFIFPPS
modifications: here or on the partner: N-linked glycosylation site at Asn47-Thr49, glycosylated as produced by CHO cells
maximal inhibition of FVIII activity in large excess of antibody (chromogenic assay) [2]: 75 to 85%
